Test results as given in publication PMC11341029 (PLOS Pathogens, 2024).

Columns and labels:
[1] = biological target: T1, NPC1-10×His-Flag (human, UniProt O15118 23-1278); experiment: SPR; conditions: both partners purified
T1 construct: also called purified NPC1-Flag; full-length NPC1 protein
T1 sequence (looked up): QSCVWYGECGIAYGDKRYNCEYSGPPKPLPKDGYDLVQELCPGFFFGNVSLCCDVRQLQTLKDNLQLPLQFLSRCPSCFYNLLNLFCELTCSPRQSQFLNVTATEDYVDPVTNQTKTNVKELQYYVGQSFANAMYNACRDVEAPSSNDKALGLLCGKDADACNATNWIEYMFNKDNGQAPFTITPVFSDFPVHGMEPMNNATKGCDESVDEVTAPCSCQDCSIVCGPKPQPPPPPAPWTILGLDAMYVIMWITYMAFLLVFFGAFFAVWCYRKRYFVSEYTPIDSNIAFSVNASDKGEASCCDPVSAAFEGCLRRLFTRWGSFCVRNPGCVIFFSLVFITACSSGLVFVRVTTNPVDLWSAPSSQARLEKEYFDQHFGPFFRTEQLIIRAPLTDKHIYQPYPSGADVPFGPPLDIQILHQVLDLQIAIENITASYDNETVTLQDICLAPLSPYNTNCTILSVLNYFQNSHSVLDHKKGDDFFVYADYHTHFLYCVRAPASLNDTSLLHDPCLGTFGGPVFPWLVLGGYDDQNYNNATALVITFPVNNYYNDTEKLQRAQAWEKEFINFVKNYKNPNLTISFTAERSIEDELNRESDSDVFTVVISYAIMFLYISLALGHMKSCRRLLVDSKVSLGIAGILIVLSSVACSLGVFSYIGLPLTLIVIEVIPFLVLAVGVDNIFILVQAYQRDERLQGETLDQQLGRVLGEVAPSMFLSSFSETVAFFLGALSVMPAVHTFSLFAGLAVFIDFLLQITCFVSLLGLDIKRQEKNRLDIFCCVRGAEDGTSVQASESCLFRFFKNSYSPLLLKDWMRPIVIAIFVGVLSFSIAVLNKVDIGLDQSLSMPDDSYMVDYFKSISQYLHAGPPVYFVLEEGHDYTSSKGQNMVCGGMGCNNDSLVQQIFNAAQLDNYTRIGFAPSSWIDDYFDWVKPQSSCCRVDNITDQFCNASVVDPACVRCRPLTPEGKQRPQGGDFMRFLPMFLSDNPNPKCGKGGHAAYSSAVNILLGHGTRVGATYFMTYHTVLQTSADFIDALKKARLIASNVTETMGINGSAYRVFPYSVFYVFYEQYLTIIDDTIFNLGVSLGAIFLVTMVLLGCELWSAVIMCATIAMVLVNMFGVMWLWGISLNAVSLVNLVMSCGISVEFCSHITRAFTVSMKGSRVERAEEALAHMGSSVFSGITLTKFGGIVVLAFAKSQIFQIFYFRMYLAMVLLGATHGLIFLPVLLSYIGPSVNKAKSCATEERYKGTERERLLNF

[2] = biological target: T2, SLC39A9 (Homo sapiens, UniProt Q9NUM3); experiment: SPR
T2 chain: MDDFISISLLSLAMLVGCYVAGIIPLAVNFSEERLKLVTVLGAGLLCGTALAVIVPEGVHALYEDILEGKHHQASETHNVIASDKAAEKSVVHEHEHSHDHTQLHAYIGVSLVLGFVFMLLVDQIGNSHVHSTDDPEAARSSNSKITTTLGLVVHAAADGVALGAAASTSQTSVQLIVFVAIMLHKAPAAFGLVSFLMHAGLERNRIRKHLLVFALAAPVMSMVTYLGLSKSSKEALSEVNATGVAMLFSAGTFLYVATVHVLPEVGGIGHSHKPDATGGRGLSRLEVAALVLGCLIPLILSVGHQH

B1: primed EBOV GP (GPcl) (domain or fragment)
chain 1: IPLGVIHNSTLQVSDVDKLVCRDKLSSTNQLRSVGLNLEGNGVATDVPSATKRWGFRSGVPPKVVNYEAGEWAENCYNLEIKKPDGSECLPAAPDGIRGFPRCRYVHKVSGTGPCAGDFAFHKEGAFFLYDRLASTVIYRGTTFAEGVVAFLILPQ
chain 2: EAIVNAQPKCNPNLHYWTTQDEGAAIGLAWIPYFGPAAEGIYIEGLMHNQDGLICGLRQLANETTQALQLFLRATTELRTFSILNRKAIDFLLQRWGGTCHILGPDCCIEPHDWTKNITDKIDQIIHDFVDKTLPDQGDNDNWWTGWRQ
- Kd [1]: 18.5 µM

B2: EBOV GP (protein)
chain: IPLGVIHNSTLQVSDVDKLVCRDKLSSTNQLRSVGLNLEGNGVATDVPSATKRWGFRSGVPPKVVNYEAGEWAENCYNLEIKKPDGSECLPAAPDGIRGFPRCRYVHKVSGTGPCAGDFAFHKEGAFFLYDRLASTVIYRGTTFAEGVVAFLILPQAKKDFFSSHPLREPVNATEDPSSGYYSTTIRYQATGFGTNETEYLFEVDNLTYVQLESRFTPQFLLQLNETIYTSGKRSNTTGKLIWKVNPEIDTTIGEWAFWETKKNLTRKIRSEELSFTVVSNGAKNISGQSPARTSSDPGTNTTTEDHKIMASENSSAMVQVHSQGREAAVSHLTTLATISTSPQSLTTKPGPDNSTHNTPVYKLDISEATQVEQHHRRTDNDSTASDTPSATTAAGPPKAENTNTSKSTDFLDPATTTSPQNHSETAGNNNTHHQDTGEESASSGKLGLITNTIAGVAGLITGGRRTRREAIVNAQPKCNPNLHYWTTQDEGAAIGLAWIPYFGPAAEGIYIEGLMHNQDGLICGLRQLANETTQALQLFLRATTELRTFSILNRKAIDFLLQRWGGTCHILGPDCCIEPHDWTKNITDKIDQIIHDFVDKTLPDQGDNDNWWTGWRQWIPAGIGVTGVIIAVIALFCICKFVF
- Kd [2]: 3 µM
